In patent US20210252150A1:

Columns and labels:
Assay in all cases: ELISA
[1] = biological target: HA of A/Solomon Islands/03/2006 (H1N1) (influenza A virus (H1N1))
[2] = biological target: HA of A/Texas/36/1991 (H1N1) (influenza A virus (H1N1))
[3] = biological target: HA of A/Texas/50/2012 (H3N2) (influenza A virus (H3N2))

Measured: EC50 fold over wild-type rFluA-20

B1: rFluA-20 heavy chain mutant Y100aA (antibody, V domains shown)
VH: QVQLQESGPGLVKPSETLSLTCSVSGVSVTSDIYYWTWIRQPPGKGLEWIGYIFYNGDTNYNPSLKSRVTMSIDTSKNEFSLRLTSVTAADTAVYFCARGTEDLGACSSGSCPNHWGQGTLVTVSS
VL: DIQMTQSPSSLSASIGDRVTITCRPSQNIRSFLNWFQHKPGKAPKLLIYAASNLQSGVPSRFSGSGSGTEFTLTIRSLQPEDFATYYCQQSYNTPPTFGQGTKVEIK
> 100 fold: all assays above
